Molecular target: T1, X-31 (H3N2) 菠萝蛋白酶释放的HA (BHA) (influenza A virus X-31 (H3N2), UniProt P03437 17-344; P03437 346-520)
T1 construct: domain: 菠萝蛋白酶释放的HA (BHA)
Assay: complex formation and size exclusion chromatography

B1: FI6变体3 Fab片段 (Fab, V domains shown)
VH: QVQLVESGGGVVQPGRSLRLSCAASGFTFSTYAMHWVRQAPGKGLEWVAVISYDANYKYYADSVKGRFTISRDNSKNTLYLQMNSLRAEDTAVYYCAKDSQLRSLLYFEWLSQGYFDYWGQGTLVTVSS
VL: not shown
Question: Does B1 bind?
Answer: binds
